This experiment has as its target calcium/calmodulin-dependent protein kinase II (CaMKII) (mouse (endogenous in hippocampal slices)) (UniProt P11798).
Sequence of UniProt P11798 (P11798 whole entry): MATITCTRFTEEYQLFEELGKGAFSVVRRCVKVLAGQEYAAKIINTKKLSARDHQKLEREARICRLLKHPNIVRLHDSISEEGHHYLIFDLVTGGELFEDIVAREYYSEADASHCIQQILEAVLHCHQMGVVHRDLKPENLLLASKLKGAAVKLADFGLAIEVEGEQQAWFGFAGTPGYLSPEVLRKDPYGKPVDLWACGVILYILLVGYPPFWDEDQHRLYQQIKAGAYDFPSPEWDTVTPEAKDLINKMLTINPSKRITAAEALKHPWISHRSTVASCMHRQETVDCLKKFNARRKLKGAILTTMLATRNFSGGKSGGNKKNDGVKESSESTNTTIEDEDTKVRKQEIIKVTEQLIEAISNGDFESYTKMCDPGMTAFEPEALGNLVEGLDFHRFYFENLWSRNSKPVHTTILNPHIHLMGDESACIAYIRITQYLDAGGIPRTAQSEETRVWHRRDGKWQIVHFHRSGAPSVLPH

Consider “NMDA receptor (NMDAR) (from UniProt P35438 19-938; Q01097 27-1482) (complex)”, for which the CaMKII relative activity (Cyclex CaMKII assay kit) after 10 min OGD with Tat-GluN2B, compared with control (relative to control) worked out at 0.97 and the amplitude of NMDAR-mediated i-LTP (NMDA fEPSPs) in hippocampal slices exposed to OGD for 10 min with Tat-GluN2B, compared with OGD alone (relative to OGD) was found to be 0.73.

Values taken from article PMC3964903.
